Test results as given in patent US20230250158A1 (TALEM THERAPEUTICS, published 2023).
Where two headings read alike, the source gives them in different places.

B1: 22-E7 (antibody, V domains shown)
VH: QVQLVESGGGVVQPGTSLRLSCAASGFTFNNYPMFWVRQAPGKGLEWLALISYDGNHKVYADSVKGRFTISRDNAKNTLYLQMHSLRAEDTALYYCASDLSGAEDSWGQGTLVTVSS
VL: QSALTQPASVSGSPGQSITISCTGTSSDVGGYNYVSWYQQHPGKAPKLLIYEVSNRPSGVSNRFSGSKSGNTASLTISGLQAEDEADYYCSSYTSSSTWVFGGGTKLTVL
notes: also called bin C
B2: 2-A6 (antibody, V domains shown)
VH: QVTLRESGPALVKPTQTLTLTCTFSGFSLNTRGMSVSWIRQPPGKALEWLALIDWEDDKFYRTSLMTRLTISKDIFKNQVVLTMTNVDPVDTGTYYCARTYSVGVKYFGMDVWGQGTTVTVSS
VL: SSELTQDPAVSVALGQTVRITCQGDSLRNYYASWYRQEPGQAPILLIYGGNYRPSGIPDRFSGSSSGNTASLTITGAQAEDEADYYCNSRDSSGNHVVFGGGTKLTVL
notes: also called bin S2
B3: 22-D9 (antibody, V domains shown)
VH: QVQLVQSGAEVKKPGSSVNVSCKTSGGTFNTYSINWVRQAPGQGLEWMGEIIPIFDKPNYAQKFQGRVTITADESTSTAYMELTSLRSDDTAVYYCARGTGYYYGMDVWGQGTTVTVSS
VL: QSVLTQPPSVSGAPRQTVTISCFGSRSNIGNYPVNWYHQVPGKAPKVVVYYDDLLPSGISDRFSGYKSGTSASLTISGLRSEDEADYYCATWDDSLNVWVFGGGTKLTVL
notes: also called bin 4
B4: 23-H7 (antibody, V domains shown)
VH: QVQLVQSGAEVKLPGASMKVSCKASGYTFSTYYMHWVRQAPGQGPEWMGVIDPSGGTTSYAQKFHDRIAMTRDTSTSTAYLELSSLRSEDMAVYYCARGGFADAVDYWGQGTLVTVSS
VL: NFMLTQPHSVSGSPGKTVTISCTRNSGSIAGNYVQWYQQRPGSAPTTVIYEDNQRPSGVPDRFSGSIDSSSNSASLTISGLKTEDEADYYCQSYDASHLHVIFGGGTKVTVL
notes: also called bin 2
B5: 23-H7 Fab (Fab, V domains shown)
VH: B4 VH
VL: B4 VL
B6: 22-F7 (antibody, V domains shown)
VH: QVQLVESGGGVVQPGRSLRLSCAASGFSFTNYGMHWVRQAPGKGLEWVAVISYDGSIKYYEDSLKGRFTVSRDNSKKTLYLQMNSLRAEDTAVYYCTRERGTGIDYWGLGTLVTVSS
VL: QSALTQPASVSGYPGQSITLSCTGTKSDIGAYNYVSWYQQHPGKAPKLMVYDVSNRPSGLSNRFSGSKSDNTASLTISGLQAEDEAHYYCSSYTTSGTVVFGGGTKVTVL
notes: also called bin C

Key:
[1] = target: B.1.351 (S1); assay: ELISA, heat map
[2] = target: SARS-CoV-2 Spike trimer (recombinant, wild type) (SARS-CoV-2, UniProt P0DTC2 14-1213); assay: ELISA on plate-adsorbed recombinant Spike
[3] = target: F342L; assay: ELISA, heat map
[4] = target: E484K; assay: ELISA, heat map
[5] = target: A435S; assay: ELISA, heat map
[6] = target: K458R; assay: ELISA, heat map
[7] = target: G476S; assay: ELISA, heat map
[8] = target: N439K; assay: ELISA, heat map
[9] = target: V483A; assay: ELISA, heat map
[10] = target: K417N; assay: ELISA, heat map
[11] = target: W436R; assay: ELISA, heat map
[12] = target: N354D; assay: ELISA, heat map
[13] = target: N501Y; assay: ELISA, heat map
[14] = target: Y453F; assay: ELISA, heat map
[15] = target: V367F; assay: ELISA, heat map
[16] = target: T1, SARS-CoV-2 Spike RBD (tagless) (SARS-CoV-2, UniProt P0DTC2 319-541); assay: Octet BLI; tagless RBD as analyte over 23-H7-coated AHC sensors; 1:1 kinetic fit
[17] = target: T1, SARS-CoV-2 Spike RBD (tagless)

Binder	binding result [1]	EC50 (read off the curve) [2]	binding result [4]	binding result [5]	binding result [6]	binding result [7]	binding result [8]	binding result [9]	binding result [10]	binding result [11]	binding result [12]	binding result [13]	binding result [14]	binding result [15]	Kd [17]	other results
B1	binds															
B2	no binding															
B3	no binding	~10 ng/mL	binds	binds	binds	binds	binds	binds	binds	binds	binds	binds	binds	binds		binding result [3]: binds
B4	binds	~2 ng/mL	binds	binds	binds	binds	binds	binds	binds	binds	binds	binds	binds	binds	4 nM	Kd [16]: 4 nM
B5															4.6 nM	
B6	binds															
